Results taken from patent US20210284724A1 (I MAB BIOPHARMA US, published 2021).

T1: human CXCL13 (human, UniProt O43927 23-109)
T1 construct: also called huCXCL13; rhCXCL13
T1 sequence (looked up): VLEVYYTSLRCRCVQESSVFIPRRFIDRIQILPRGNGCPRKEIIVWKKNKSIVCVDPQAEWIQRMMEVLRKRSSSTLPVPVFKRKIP


Experiments:
[1] = molecular target: T1, human CXCL13; experiment: ELISA binding, Fab
[2] = molecular target: T1, human CXCL13; experiment: SPR Biacore, off-rate ranking of Fabs
[3] = molecular target: T1, human CXCL13; experiment: SPR Biacore 8K, Fab over immobilised CXCL13
Procedure: Among all humanized Fab samples, 71F4A3-VH2VL1, 71F4A3-VH1VL1 (Hz71F4), 71F4A3-VH1VL2, 71F4A3-VH3VL1, 411A11E9-VH1VL4, 411A11E9-VH3VL4, 411A11E9-VH2VL4, 411A11E9-VH3VL2, 411A11E9-VH1VL2, 21H12D9-VH1VL1, 21H12D9-VH2VL2, 21H12D9-VH3VL3, 21H12D9-VH1VL2, 64C10G1-VH1VL3, 64C10G1-VH1VL4, 64C10G1-VH1VL1, 64C10G1-VH1VL2 were selected to test affinity by Biacore 8K. 10 mM HEPES, 150 mM NaCl, 3 mM EDTA, 0.05% Tween-20, pH 7.4 served as running buffer and 10 mM glycine-HCl, pH2.0 served as regeneration buffer. CXCL13 protein were immobilized on Sensor Chip CM5 using amine coupling method (immobilization level ˜250RU). The serial concentrations of Fab (0-20 nM) were injected over immobilized CXCL13 at the flow rate of 30 μl/min. The dissociation phases were 600s.

[4] = molecular target: T1, human CXCL13; experiment: cell-based blocking assay, CXCL13 to CXCR5 cells
In short: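 CHO-K1 cells expressing CXCR5 were plated at 5×10⁴/well overnight at 37° C, fixed with 2% PFA and blocked with 1% BSA in PBST. Serially diluted humanized Fabs were mixed with an equal volume of human CXCL13 at 0.3 μg/ml and pre-incubated for 30 min at room temperature, and 100 μl of each mix was added to the cells for 30 min. After three PBST washes, bound CXCL13 was captured with 3 μg/ml of a human anti-CXCL13 antibody, detected with anti-human Fc-HRP and read at 450 nm. IC50 was derived from the titration.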

[5] = molecular target: T1, human CXCL13; experiment: cell-based blocking ELISA, CXCL13 to CHO-K1-CXCR5
Procedure: This example tested the blocking of the anti-CXCL13 chimeric antibodies to CHO-K1-CXCR5 cells. Briefly, 5×10⁴ CHO-K1-CXCR5 cells were plated in 96-well plate with 100 μl of culture medium and incubated at 37° C. overnight. Cells were fixed with 100 μl of 2% PFA at RT for 1 hr after washing with PBS for 1 time. Samples were blocked with 1% BSA in PBST for 1 hr at RT. Antibodies were serial diluted from 50 μg/ml by 3-fold with 1% BSA/PBST and pre-incubated with equal volume of 0.3 μg/ml human CXCL13 for 30 min at RT. 100 μl of antibody-antigen complex was transferred into each cell wells for 30 min at RT. Samples were washed with 1×PBST for 3 times and 100 μl of 3 μg/ml of human Mab5261 antibody was added into each well to capture human CXCL13 and anti-human Fc-HRP was used to indirectly detect human CXCL13 when it bound to CHO-K1-CXCR5 cells.
Then read at 450 nm. […] Among all clones, 415A3D1, 64C10G1, 1H3A11, 414D10F5, 411A11E9, 21H12D9, 71F4A3, 329F2E1 show completely blocking activity and 408E3F3, 19H7E10, 339A6E7 appeared to be partial blockers.

[6] = molecular target: T1, human CXCL13; experiment: SPR Biacore 8K, Fab over immobilised CXCL13; remark: listed apart in the source
Procedure: HuCXCL13 binding affinity by Surface Plasmon Resonance. 411A11E9, 415A3D1, 64C10G1, 21H12D9, 329F2E1, 71F4A3 were selected to produce Fab and tested binding affinity. The binding of the antibodies to huCXCL13 was examined by Biacore 8K. 10 mM HEPES, 150 mM NaCl, 3 mM EDTA, 0.05% Tween-20, pH 7.4 served as running buffer and 10 mM glycine-HCl, pH2.0 served as regeneration buffer. CXCL13 protein was immobilized on Sensor Chip CM5 using amine coupling method (immobilization level ˜30RU). The serial concentrations of Fab (0-16 nM) were injected over immobilized CXCL13 at the flow rate of 30 μl/min. The dissociation phases were 600s.

| Binder | EC50 [1] [nM] | Kd [2] [nM] | koff [2] [s⁻¹] | kon [2] [M⁻¹ s⁻¹] | Kd [3] [nM] | koff [3] [s⁻¹] | kon [3] [M⁻¹ s⁻¹] | IC50 [4] [nM] | IC50 [5] [µg/mL] | Kd [6] [nM] | koff [6] [s⁻¹] | kon [6] [M⁻¹ s⁻¹] |
| --- | --- | --- | --- | --- | --- | --- | --- | --- | --- | --- | --- | --- |
| 64C10G1-VH1VL3 (Fab, V domains shown, Humanized Fab, human gamma 1 and kappa constant domains; also called 64C10G1-VH1VL3(Fab)) VH: EVQLVESGGGLVQPGGSLRLSCAASGFTFSSYAMSWVRQAPGKGLEWVATISDGGSDAYYPDNVKGRFTISRDNAKNSLYLQMNSLRAEDTAVYYCARDYYGSGYEDSPMDYWGQGTLVTVSS VL: DIQMTQSPSSLSASVGDRVTITCKASQDINKYIAWYQQKPGKAPKLLIHYTSTLQPGIPSRFSGSGSGTDFTFTISSLQPEDFATYYCLQYDNLYTFGGGTKLEIK | 1.07 | 2.98 | 0.00543 | 1.82e+06 | 2.98 | 0.00543 | 1.82e+06 | 7.69 | – | – | – | – |
| 64C10G1-VH1VL1 (Fab, V domains shown, Humanized Fab, human gamma 1 and kappa constant domains; also called 64C10G1-VH1VL1(Fab)) VH: EVQLVESGGGLVQPGGSLRLSCAASGFTFSSYAMSWVRQAPGKGLEWVATISDGGSDAYYPDNVKGRFTISRDNAKNSLYLQMNSLRAEDTAVYYCARDYYGSGYEDSPMDYWGQGTLVTVSS VL: DIQMTQSPSSLSASVGDRVTITCKASQDINKYIAWYQQKPGKAPKLLIYYTSTLQPGVPSRFSGSGSGTDFTFTISSLQPEDIATYYCLQYDNLYTFGGGTKLEIK | 1.29 | 5.89 | 0.0255 | 4.33e+06 | 5.89 | 0.0255 | 4.33e+06 | 7.79 | – | – | – | – |
| 64C10G1-VH1VL2 (Fab, V domains shown, Humanized Fab, human gamma 1 and kappa constant domains; also called 64C10G1-VH1VL2(Fab)) VH: EVQLVESGGGLVQPGGSLRLSCAASGFTFSSYAMSWVRQAPGKGLEWVATISDGGSDAYYPDNVKGRFTISRDNAKNSLYLQMNSLRAEDTAVYYCARDYYGSGYEDSPMDYWGQGTLVTVSS VL: DIQMTQSPSSLSASVGDRVTITCKASQDINKYIAWYQQKPGKAPKLLIHYTSTLQPGVPSRFSGSGSGTDFTFTISSLQPEDFATYYCLQYDNLYTFGGGTKLEIK | 1.23 | 1.92 | 0.00515 | 2.69e+06 | 1.92 | 0.00515 | 2.69e+06 | 7.02 | – | – | – | – |
| 64C10G1-VH1VL4 (Fab, V domains shown, Humanized Fab, human gamma 1 and kappa constant domains; also called 64C10G1-VH1VL4(Fab)) VH: EVQLVESGGGLVQPGGSLRLSCAASGFTFSSYAMSWVRQAPGKGLEWVATISDGGSDAYYPDNVKGRFTISRDNAKNSLYLQMNSLRAEDTAVYYCARDYYGSGYEDSPMDYWGQGTLVTVSS VL: DIQMTQSPSSLSASVGDRVTITCKASQDINKYIAWYQQKPGKAPKLLIHYTSTLQPGIPSRFSGSGSGTDYTFTISSLQPEDFATYYCLQYDNLYTFGGGTKLEIK | 0.784 | 3.68 | 0.00713 | 1.94e+06 | 3.68 | 0.00713 | 1.94e+06 | 6.88 | – | – | – | – |
| 71F4A3-VH1VL1 (Hz71F4) Fab (Fab, V domains shown, Humanized Fab, human gamma 1 and kappa constant domains) VH: EVQLVESGGGLVQPGGSLRLSCAASGIDFSRYWMSWVRQAPGKGLEWVAEINPDSSTINYAPSLKDRFTISRDNAKNSLYLQMNSLRAEDTAVYYCARQDDYEYYAMDYWGQGTTVTVSS VL: DIQMTQSPSSLSASVGDRVTITCKASQDVNTGVAWYQQKPGKAPKLLIYSASYRYTGVPSRFSGSGSGTDFTFTISSLQPEDIATYYCQQYYSTPLTFGGGTKLEIK | 0.974 | 0.426 | 0.00136 | 3.2e+06 | 0.619 | 0.00125 | 2.02e+06 | 11.2 | – | – | – | – |
| 71F4A3-VH1VL2 (Fab, V domains shown, Humanized Fab, human gamma 1 and kappa constant domains) VH: EVQLVESGGGLVQPGGSLRLSCAASGIDFSRYWMSWVRQAPGKGLEWVAEINPDSSTINYAPSLKDRFTISRDNAKNSLYLQMNSLRAEDTAVYYCARQDDYEYYAMDYWGQGTTVTVSS VL: DIQMTQSPSSLSASVGDRVTITCKASQDVNTGVAWYQQKPGKAPKLLIYSASYRYTGVPSRFSGSGSGTDFTFTISSVQPEDIATYYCQQYYSTPLTFGGGTKLEIK | 1.18 | 0.516 | 0.00147 | 2.85e+06 | 0.628 | 0.00116 | 1.84e+06 | 10.7 | – | – | – | – |
| 71F4A3-VH2VL1 (Fab, V domains shown, Humanized Fab, human gamma 1 and kappa constant domains) VH: EVQLVQSGGGLVQPGGSLRLSCAASGIDFSRYWMSWVRQAPGKGLEWVAEINPDSSTINYAPSLKDRFTISRDNAKNSLYLQMNSLRAEDTAVYYCARQDDYEYYAMDYWGQGTTVTVSS VL: DIQMTQSPSSLSASVGDRVTITCKASQDVNTGVAWYQQKPGKAPKLLIYSASYRYTGVPSRFSGSGSGTDFTFTISSLQPEDIATYYCQQYYSTPLTFGGGTKLEIK | 0.819 | 0.554 | 0.00108 | 1.95e+06 | 0.853 | 0.00145 | 1.7e+06 | 10.5 | – | – | – | – |
| 408E3F3 chimeric human IgG1 antibody (antibody, V domains shown, Chimeric human IgG1) VH: HVTLRESGPGVLQPSKTLSLTCSFSGFSLSTSAMVVSWIRQSSGMSLEWLAAIDWEGDKYYNPSLESRLTVSRDISDTQVFLRITSVDVADTATYYCAVMSSADSHSVLDAWGQGVSVTVSS VL: DIKMTQSPSFLSASVGDRVTINCKASQNIHNYLNWYQQKFGEAPRLLIYNTNNLQTGIPSRFSGSGSGTDFTLTISSLQPEDVATYFCLQHSSSLTFGSGTKLEIN | – | – | – | – | – | – | – | – | 7.64 | – | – | – |
| 19H7E10 chimeric human IgG1 antibody (antibody, V domains shown, Chimeric human IgG1) VH: EVQLQQSGPELVKPGASVKISCQASGYAFSDYYMNWVKQSHGKRLEWIGDINPNNDGTTYNQKFKDKATLTVDKSSSTAYMDLRSLTSEDSAVYYCARLSWSFFAMDYWGQGTSVTVSS VL: DIVMTQSHKFMSTSVGDRVSITCKASQDVSSGVAWYQQKPGQSPKVLIYSASHRHTGVPDRFTASGSGTDFTFTISSVQAEDLAVYYCQQYYNTPWTFGGGTKLEIK | – | – | – | – | – | – | – | – | 15.1 | – | – | – |
| 21H12D9 chimeric Fab (Fab, V domains shown, Fab; also called 21VH12D9-Chimeric) VH: EVQLQQSGPVLVRPGASVKMSCKASGYTFTDYYMNWVKQSHGKSLEWIGVINPNNGGTTYKEKFKGKATLTVDKSSGTAYMELNSLTSEDSAVYYCARDDYDAGYWGQGTTLTVSS VL: DIVMTQFQKFMSTTVGDRVSITCKASQNVDTAVAWYQHKPGQSPKLLIYSASHRYTGVPDRFTGSGSGTDFTLTISNVQSEDLADYFCQQYTDFPLTFGAGTKLELK | – | 1.18 | 0.00139 | 1.17e+06 | 1.42 | 0.00258 | 1.82e+06 | – | – | 0.341 | 0.000731 | 2.14e+06 |
| 411A11E9 chimeric Fab (Fab, V domains shown, Fab) VH: EVQLVESGGGLVQPGGSLKLSCVVSGFTFSDYYMAWVRQTPTKGLEWVASINYDGGDTYYRDSVKGRFTVSRNNAKSSLFLQMDSLRSEDTATYYCKTEEDYDGSYVMDAWGQGASVIVSS VL: DIQMTQSPSFLSASVGDRVTISCKASQNINKELTWYQQKLGKAPKRLIYNTNILQTGIPSRFSGSGSNTDYTLTISSLQPEDFATYFCLQQSSLYTFGAGTKLELK | – | 0.708 | 0.00287 | 4.05e+06 | 0.74 | 0.00156 | 2.11e+06 | – | – | 0.158 | 0.000326 | 2.06e+06 |
